Measured values published in PMC8017925, “Structural basis for differential recognition of phosphohistidine-containing peptides by 1-pHis and 3-pHis monoclonal antibodies” (Proceedings of the National Academy of Sciences of the …, 2021).
*1 amine or outer side, *2 acyl side, *3 side chain or, on linkers, in order; H or OH if unused. Where no end group is shown, it is not given here. [ ]: non-standard residue; d: D form. The star is where a group is joined. 1‑pHis = 1-phosphohistidine, O=C([C@H](Cc1cncn1P(=O)(O)O[*:3])N[*:1])[*:2]; Biotin = O=C1N[C@H]2[C@H](CS[C@H]2CCCCC(=O)*)N1

Assays:
[1] = Stability of 1- and 3-pHis peptides with and without pHis mAbs (BLI read-out); type: physicochemical; conditions: phosphorylated ACLYana, 0-24 h, no pHis mAbs; read-out BLI signal at end of association, normalized to 0 h
Experimental: Next, we examined the ability of these Fabs to recognize phosphorylated substrates using differential scanning fluorimetry (DSF).
Fig. S6. Stability of 1- and 3-pHis peptides in the presence of pHis mAbs. In the BLI experiment, analytes were SC50-3 (A and B) and SC44-8 (C and D) Fabs and ligand was the ACLYana peptide.
Prior to the experiment, the peptide was phosphorylated with phosphoramidate and divided into two sets - set A and set B. The set A peptide was incubated with 1- and 3-pHis mAbs separately for extended periods of time (0 - 24 h) and set B was not incubated with pHis mAbs. The ACLYana-pHis peptide incubated with the mixture of 1-pHis IgGs (A, continuous lines) and 3-pHis IgGs (C, continuous lines) has the higher signal intensity at all time points compared to […]
(discontinuous lines). The BLI signal intensity at the end of association phase was used to compare the rate of hydrolysis with (set A) and without incubation with pHis mAbs (set B). The signal intensities were normalized to the 0 h (B and D). The unphosphorylated peptide was used as a […]
the rate of dephosphorylation. In the absence of pHis mAb incubation, 1-pHis peptide hydrolyzed […]
(1 picture or pasted object on this page, not shown here)

[2] = biological target: T1, ACLY peptide, 3-pHis form; assay: BLI; biotinylated pHis peptides (20 nM) on streptavidin biosensors, Fab in solution at varying concentrations; 50 mM Hepes pH 8.0, 150 mM NaCl, 0.05% Tween-20, 0.2% BSA; Octet RED96e; global fit to a 1:1 Langmuir model
T1 sequence (peptide, biotin on the N-terminus; C-terminal amide; 3-phosphohistidine at position 5): VQFGHAGAC

[3] = substrate: SCS peptide, phosphorylated, 3-pHis form; assay: BLI; N-terminally biotinylated peptides (20 nM) on streptavidin biosensors, varying concentrations of Fab in solution; 50 mM Hepes pH 8.0, 150 mM NaCl, 0.05% Tween-20, 0.2% BSA; association 120 s, dissociation 200 s; global fit to a 1:1 Langmuir model; Octet RED96e; in triplicate
[4] = biological target: ACLYana-3-pTza peptide (AGAG-3-pTza-AGAG); assay: as above
[5] = biological target: ACLY peptide, phosphorylated, 3-pHis form; assay: as above
[6] = biological target: T2, ACLYana-3-pHis peptide (AGAG-3-pHis-AGAG); assay: as above
T2 sequence (peptide, 3-phosphohistidine at position 5; biotin on the N-terminus): AGAGHAGAG

[7] = substrate: SCS peptide, 3-pHis form; assay: BLI; biotinylated pHis peptides (20 nM) on streptavidin biosensors, Fab in solution at varying concentrations; 50 mM Hepes pH 8.0, 150 mM NaCl, 0.05% Tween-20, 0.2% BSA; Octet RED96e; global fit to a 1:1 Langmuir model

## 1-pHis peptide: 1-pHis isomer of phosphorylated ACLYana peptide (Biotin-AGAG[1‑pHis]AGAG)
[1]
  hydrolysis of pHis peptide in the absence of pHis mAb incubation: faster than 3-pHis peptide

B1: SC44-8 Fab (Fab, V domains shown)
VH: QSVKESGRGLVQPGGSLTLTCTASGFSIDSYGFSWVRQAPGKGLEHIGYLTAGGRAFYASWAKSRSTITRNTNENTVTLKMTSLTAADTATYFCAKLGSGNPVAIWGPGTLVTVSS
VL: QVLTQTPSFTSAAVGGTVTINCQSSQSVWRNKNLAWYQQKPGQPPKRLIYAIATLDSGVPSRFSGSGSGTQFTLTISDVQCDDAATYYCVGHYGSENDAYYAFGGGTEVVVK
[2]
  Kd: 348 nM
  koff: 0.00972 s⁻¹
  kon: 28000 M⁻¹ s⁻¹
[3]
  BLI signal intensity for the association: 0.5 nm
[4]
  Kd: 0.235 nM
  koff: 3.66e-05 s⁻¹
  kon: 156000 M⁻¹ s⁻¹
[5]
  BLI signal intensity for the association: 0.5 nm
[6]
  BLI signal intensity for the association: 2 nm
  Kd: 18.2 nM
  koff: 0.0017 s⁻¹
  kon: 93600 M⁻¹ s⁻¹
[7]
  Kd: 467 nM
  koff: 0.0137 s⁻¹
  kon: 29300 M⁻¹ s⁻¹
